In patent publication US12129308 (Merck KGaA, dated 2024):
Where two headings read alike, the source gives them in different places.

Assays:
[1] = biological target: T1, activated MMP13 (species not stated) (Homo sapiens (Human), UniProt P45452 104-471, Biotinylated in the TIMP-2 competition ELISA (sites not given). Activated form: pro-peptide removed.); assay: TIMP-2 competition ELISA; Nanobody pre-incubated with 1.26 nM activated MMP13-biotin, binding to captured TIMP-2
T1 construct: campaign 4 ELISA; Probably human

activated rat MMP13 [2] = biological target: T2, activated rat MMP13 (rat, UniProt P23097 99-466); assay: cell-based or functional assay
activated human MMP13 [3] = biological target: T3, activated human MMP13 (human, UniProt P45452 104-471); assay: cell-based or functional assay
activated dog MMP13 [4] = biological target: T4, activated dog MMP13 (dog, UniProt P45452 104-471 (human entry)); assay: cell-based or functional assay
bovine MMP13 = bovine MMP13 (bovine, UniProt O77656 104-471); assay: cell-based or functional assay
activated rat MMP13 [5] = biological target: T2, activated rat MMP13; assay: cell-based or functional assay; remark: listed apart in the source
activated human MMP13 [6] = biological target: T3, activated human MMP13; assay: cell-based or functional assay; remark: listed apart in the source
cynomolgus MMP13 = cynomolgus MMP13 (cynomolgus, UniProt A0A2K5U988 104-471); assay: cell-based or functional assay
[7] = biological target: T1, activated MMP13 (species not stated); assay: cell-based or functional assay
activated human MMP13 [8] = biological target: T3, activated human MMP13; assay: cell-based or functional assay; remark: listed apart in the source
Aggrecan = biological target: T5, Aggrecan; assay: competition ELISA (CAP) on Aggrecan; competitor not stated
T5 construct: also called CAP

activated human MMP13 [9] = biological target: T3, activated human MMP13; assay: competition ELISA: dilution series of Nanobody against 0.6 nM biotinylated 40E09 (C0101040E09-biotin) on APMA-activated human full-length MMP13 captured via mouse anti-human MMP13 mAb MAB511
activated human MMP13 [10] = biological target: T3, activated human MMP13; assay: cell-based or functional assay; remark: listed apart in the source
activated dog MMP13 [11] = biological target: T4, activated dog MMP13; assay: ELISA; activated MMP13 captured via mAb511, Nanobody detected with anti-FLAG-HRP
Description: (§1) After a washing step in PBS+0.05% Tween20, 20 nM activated human, rat or dog MMP13 were added for one hour at RT. After a second washing step, 10-fold dilutions of periplasmic extracts or dilution series of purified Nanobodies in PBS, 0.1% casein, 0.05% Tween 20 were added for one hour at RT. Bound Nanobodies were detected with mouse anti-FLAG-HRP (Sigma (A8592)).

activated rat MMP13 [12] = biological target: T2, activated rat MMP13; assay: as above
Description: as §1

activated human MMP13 [13] = biological target: T3, activated human MMP13; assay: as above
Description: as §1

B1: C0101PMP517A01 (VHH)
VHH: DVQLVESGGGLVQPGGSLRLSCAASGRTFSSYAMGWFRQAPGKEREFVAAISWSGGSTYYADSVKGRFTISRDNSKNTVYLQMNSLRPEDTAVYYCTAALAVYGPNRYRYGPVGEYNYWGQGTLVTVSS
notes: Profile 2 Nanobody; also called C0101517A01; C010100087 (parental)
For B1, the IC50 [1] was 2.6 nM, the “IC50, (adapted) rat fluorogenic peptide assay” value (activated rat MMP13 [2]) was 2.64 nM and the “IC50, human fluorogenic collagen assay” value (activated human MMP13 [3]) was 10.8 nM. For the same binder, the “IC50, dog fluorogenic peptide assay” value (activated dog MMP13 [4]) was 3.4 nM, the “IC50, bovine fluorogenic peptide assay” value (bovine MMP13) was 6.4 nM and the “IC50, rat fluorogenic peptide assay” value (activated rat MMP13 [5]) was 2.1 nM. For the same binder, the “IC50, human collagenolytic assay” value (activated human MMP13 [6]) was 2.3 nM, the “IC50, human fluorogenic collagen assay” value (activated human MMP13 [6]) was 10.9 nM and the “IC50, human fluorogenic peptide assay” value (activated human MMP13 [6]) was 4.6 nM. The “IC50, cyno fluorogenic peptide assay” value (cynomolgus MMP13) was 3 nM and the “IC50, fluorogenic peptide assay” value [7] was 2.5 nM.

B2: C010100681 (bispecific antibody)
chain: EVQLVESGGGLVQPGGSLRLSCAASGFTLAYYSIGWFRQAPGKEREGVSCISSGIDGSTYYADSVKGRFTISRDNAKNTMYLQMNNLKPEDTGVYYCAADPSHYYSEYDCGYYGMDYWGKGTLVTVSSGGGGSGGGGSGGGGSGGGGSGGGGSGGGGSGGGGSEVQLVESGGGLVQPGGSLRLSCAASGSTFIINVVRWYRRAPGKQRELVATISSGGNANYVDSVRGRFTISRDNSKNTVYLQMNSLRPEDTAVYYCNVPTTHYGGVYYGPYWGQGTLVTVSSGGGGSGGGGSGGGGSGGGGSGGGGSGGGGSGGGGSEVQLVESGGGLVQPGGSLRLSCAASGSTFIINVVRWYRRAPGKQRELVATISSGGNANYVDSVRGRFTISRDNSKNTVYLQMNSLRPEDTAVYYCNVPTTHYGGVYYGPYWGQGTLVTVSS
notes: MMP13-Aggrecan bispecific Nanobody construct; also called 80A01-114F08SO-114F08SO
B2 was tested, and the “potency, human fluorogenic peptide assay” value (activated human MMP13 [8]) was 1.08 nM and the IC50 (Aggrecan) was 0.99 nM.

B3: C010100690 (bispecific antibody)
chain: EVQLVESGGGLVQPGGSLRLSCAASGFTLAYYSIGWFRQAPGKEREGVSCISSGIDGSTYYADSVKGRFTISRDNAKNTMYLQMNNLKPEDTGVYYCAADPSHYYSEYDCGYYGMDYWGKGTLVTVSSGGGGSGGGGSGGGGSGGGGSGGGGSGGGGSGGGGSEVQLVESGGGLVQPGGSLRLSCAASGRTFSSYTMGWFRQAPGKEREFVAAISWSGGRTYYADSVKGRFTISRDNSKNTVYLQMNSLRPEDTAVYYCAAYRRRRASSNRGLWDYWGQGTLVTVSS
notes: MMP13-Aggrecan bispecific Nanobody construct; also called 80A01-604F02SO
With B3 the “potency, human fluorogenic peptide assay” value (activated human MMP13 [8]) was 2.42 nM and the IC50 (Aggrecan) was 24 nM.

B4: C010100729 (bispecific antibody)
chain: DVQLVESGGGLVQPGGSLRLSCAASGRTFSSYAMGWFRQAPGKEREFVAAISWSGGSTYYADSVKGRFTISRDNSKNTVYLQMNSLRPEDTAVYYCTAALAVYGPSRYRYGPVGEYQYWGQGTLVTVSSGGGGSGGGGSGGGGSGGGGSGGGGSGGGGSGGGGSEVQLVESGGGLVQPGGSLRLSCAASGSTFSRYSMNWYRQAPGKQREFVAGISVGRITNYAVSVKGRFTISRDNSKNTGYLQMNSLRPEDTAVYYCNAGGLQGYWGQGTLVTVSSGGGGSGGGGSGGGGSGGGGSGGGGSGGGGSGGGGSEVQLVESGGGLVQPGGSLRLSCAASGRTFSSYTMGWFRQAPGKEREFVAAISWSGGRTYYADSVKGRFTISRDNSKNTVYLQMNSLRPEDTAVYYCAAYRRRRASSNRGLWDYWGQGTLVTVSSA
notes: also called 517A01SO-40E09SO-604F02SO-A
For B4, the “potency, human fluorogenic peptide assay” value (activated human MMP13 [8]) was 0.541 nM and the IC50 (Aggrecan) was 21 nM.

B5: C010100702 (bispecific antibody)
chain: EVQLVESGGGLVQPGGSLRLSCAASGRTFSSYAMGWFRQAPGKEREFVAAISWSGGSTYYADSVKGRFTISRDNSKNTVYLQMNSLRPEDTAVYYCTAALAVYGPSRYRYGPVGEYQYWGQGTLVTVSSGGGGSGGGGSGGGGSGGGGSGGGGSGGGGSGGGGSEVQLVESGGGSVQPGGSLRLSCAASGSTFSRYSMNWYRQAPGKQREFVAGISVGRITNYAVSVRGRFTISRDNSEGTGYLQMNSLRPEDTAVYYCNAGGLQGYWGLGTLVTVSSGGGGSGGGGSGGGGSGGGGSGGGGSGGGGSGGGGSEVQLVESGGGLVQPGGSLRLSCAASGSTFIINVVRWYRRAPGKQRELVATISSGGNANYVDSVRGRFTISRDNSKNTVYLQMNSLRPEDTAVYYCNVPTTHYGGVYYGPYWGQGTLVTVSSGGGGSGGGGSGGGGSGGGGSGGGGSGGGGSGGGGSEVQLVESGGGLVQPGGSLRLSCAASGSTFIINVVRWYRRAPGKQRELVATISSGGNANYVDSVRGRFTISRDNSKNTVYLQMNSLRPEDTAVYYCNVPTTHYGGVYYGPYWGQGTLVTVSS
notes: also called 517A01SO-40E09SOvar-114F08SO-114F08SO
B5 was tested, and the “potency, human fluorogenic peptide assay” value (activated human MMP13 [8]) was 0.0771 nM and the IC50 (Aggrecan) was 0.12 nM.

B6: C010100724 (bispecific antibody)
chain: DVQLVESGGGLVQPGGSLRLSCAASGSIFSINAMGWYRQAPGKQRELVAAISSGGSTYYADSVKGRFTISRDNSKNTVYLQMNSLRPEDTAVYYCNAAVDASRGLPYELYYYWGQGTLVTVSSGGGGSGGGGSGGGGSGGGGSGGGGSGGGGSGGGGSEVQLVESGGGLVQPGGSLRLSCAASGRTFSSYTMGWFRQAPGKEREFVAAISWSGGRTYYADSVKGRFTISRDNSKNTVYLQMNSLRPEDTAVYYCAAYRRRRASSNRGLWDYWGQGTLVTVSSA
notes: MMP13-Aggrecan bispecific Nanobody construct; also called 529C12SO-604F02SO-A
For B6, the “potency, human fluorogenic peptide assay” value (activated human MMP13 [8]) was 0.697 nM and the IC50 (Aggrecan) was 32 nM.

B7: C010100682 (bispecific antibody)
chain: EVQLVESGGGLVQPGGSLRLSCAASGSIFSINAMGWYRQAPGKQRELVAAISSGGSTYYADSVKGRFTISRDNSKNTVYLQMNSLRPEDTAVYYCNAAVDASRGLPYELYYYWGQGTLVTVSSGGGGSGGGGSGGGGSGGGGSGGGGSGGGGSGGGGSEVQLVESGGGLVQPGGSLRLSCAASGSTFIINVVRWYRRAPGKQRELVATISSGGNANYVDSVRGRFTISRDNSKNTVYLQMNSLRPEDTAVYYCNVPTTHYGGVYYGPYWGQGTLVTVSSGGGGSGGGGSGGGGSGGGGSGGGGSGGGGSGGGGSEVQLVESGGGLVQPGGSLRLSCAASGSTFIINVVRWYRRAPGKQRELVATISSGGNANYVDSVRGRFTISRDNSKNTVYLQMNSLRPEDTAVYYCNVPTTHYGGVYYGPYWGQGTLVTVSS
notes: MMP13-Aggrecan bispecific Nanobody construct; also called 529C12SO-114F08SO-114F08SO
B7 was tested, and the “potency, human fluorogenic peptide assay” value (activated human MMP13 [8]) was 0.551 nM and the IC50 (Aggrecan) was 0.45 nM.

B8: C0101PMP040E09 (VHH)
VHH: EVQLVESGGGSVQAGGSLRLSCAASGSTFSRYSMNWYRQAPGKQREFVAGISVGRITNYAVSVRGRFTISRDNAEGTGYLQMNSLKPEDTAVYYCNAGGLQGYWGLGTQVTVSS
notes: Profile 1 Nanobody; also called C0101040E09
For B8, the “IC50 (read off the curve)” value (activated human MMP13 [9]) was roughly 4 nM, the “IC50 (read off the curve); fluorogenic Collagen assay, partial inhibition [left graph]” value (activated human MMP13 [10]) was roughly 20 nM and the “IC50, human collagenolytic assay” value (activated human MMP13 [6]) was 10.2 nM. It also gave an EC50 (activated dog MMP13 [11]) of 0.38 nM, an EC50 (activated rat MMP13 [12]) of 0.44 nM and an EC50 (activated human MMP13 [13]) of 0.66 nM.
